Data: patent publication US20030203464

Target: Rac1 (UniProt P63000)

## 66 kD Tiam-1
  GEF activity (32P-GTP bound to the GTPase, filter assay), with ascorbyl stearate: Other truncations of Tiam-1, all containing the DH and PH domains (FIG. 3), also exhibited AS stimulated GEF activity on Rac 1

## 135 kD Tiam-1
  GEF activity (32P-GTP bound to the GTPase, filter assay), with and without ascorbyl stearate: shows weak GEF activity towards Rac in the absence of AS, but is still greatly stimulated by AS

## 85 kD Tiam-1
  GEF activity (32P-GTP bound to the GTPase, filter assay), with ascorbyl stearate: ascorbyl stearate (AS) stimulated the rate of Tiam-1-mediated nucleotide exchange on Rac 1
  GEF activity (32P-GTP bound to the GTPase, filter assay), without lipid: this truncation alone, at various concentrations, exhibited no GEF activity towards Rac 1

## 106 kD Tiam-1
  GEF activity (32P-GTP bound to the GTPase, filter assay), with ascorbyl stearate: Other truncations of Tiam-1, all containing the DH and PH domains (FIG. 3), also exhibited AS stimulated GEF activity on Rac 1
